The text below walks through data of US20260092084A1, “PEPTIDE AND ASSEMBLY OR COMPOSITION CONTAINING SAID PEPTIDE” (priority 2022, published 2026).

The term Kd denotes a measure of binding affinity in units of concentration. A lower Kd goes with a tighter complex.

Series [1] in a line: Pyrene fluorescence probing, critical aggregation concentration. It counts as physicochemical. Conditions: pyrene probe 0.1 μM in PBS, 24 hours, room temperature; inflection point of FIG. 5. The protocol: Fluorescence probing has hitherto been widely used as a technique for measuring the critical micellar concentration (CMC) of a surfactant solution. When hydrophobic fluorescent molecules are added to an aqueous solution of a surfactant and excited, week fluorescence is generated from the fluorescent molecules dispersed in the solution under a state in which the concentration of the surfactant is low. Meanwhile, the concentration of the surfactant is more than the CMC, the hydrophobic fluorescent molecule is incorporated into a micelle surrounded by hydrophobic groups of the surfactant (hydrophobic environment) and emits strong fluorescence. In this experimental example, a change in fluorescent property with a change in peptide concentration was investigated by using pyrene as a fluorescence probe and using a peptide instead of the surfactant. […]
(3) One hundred fifty microliter of the reaction solution was transferred to each well of a plate (Non-Treated Black Polystyrene 96-well plate (Corning 3694)). […] The peak value of a fluorescence intensity (384 nm) was plotted against a peptide concentration (logarithmic value).
This increased fluorescence intensity means formation of a peptide assembly that provides a hydrophobic environment capable of encapsulating pyrene. […] The peptides of Examples 1-2 and 1-5 each had approximately the same fluorescence intensity up to 0.1 mM.

A short description of series [2]: Average particle diameter of peptide assembly by dynamic light scattering. It counts as physicochemical. To be noted: 10 mM HEPES, 150 mM NaCl buffer (pH 7); 40 mM DMSO stock diluted 100-fold; stood overnight; 25° C.; main peak of scattering intensity. The protocol: 5 mg of each of the peptides of Examples 1-1 to 1-5 and Reference Examples 1-1 to 1-8 was dissolved in dimethyl sulfoxide (DMSO) to provide a stock solution (40 mM). To a 10 mM HEPES and 150 mM NaCl buffer (pH 7) under stirring with a micromixer (E-36, Taitec Corporation), 4 μL of the stock solution was dropped to be diluted 100-fold. The dilution was vortexed and then left to stand still at room temperature overnight. Then, 200 μL of the dilution was used as a measurement sample and measurement of particle diameter distribution was performed at 25° C. by dynamic light scattering with Litesizer 500 (Anton Paar GmBH). The results determined by defining the main peak of a scattering intensity as the average particle diameter of an assembly are shown in Table 3. Provided that, when a polydispersity index was more than 20%, the main peak was determined with further reference to a volume-based particle diameter distribution.

In series [3] the target is Arg-gingipain (Rgp). Description: SPR (Biacore T100); Rgp amine-coupled directly to CM5 chip; peptide as analyte at 25-1,600 nM. (In SPR one partner is held on a chip, and binding of the other changes the refractive index at the surface.)

Square brackets hold non-standard residues; d marks the D form. Ends that are not written are not given here. * marks the point of attachment. pS = N[C@@H](COP(=O)(O)O)C(=O)O; Tfa = O=C(C(F)(F)F)*

Consider “DSpSEEKW-LLELLELL-RRK(Tfa)RR (DS[pS]EEKWLLELLELLRRK(Tfa)RR-NH2; N-terminus assumed; SMILES CC(C)C[C@H](NC(=O)[C@H](CC(C)C)NC(=O)[C@H](CCC(=O)O)NC(=O)[C@H](CC(C)C)NC(=O)[C@H](CC(C)C)NC(=O)[C@H](CCC(=O)O)NC(=O)[C@H](CC(C)C)NC(=O)[C@H](CC(C)C)NC(=O)[C@H](Cc1c[nH]c2ccccc12)NC(=O)[C@H](CCCCN)NC(=O)[C@H](CCC(=O)O)NC(=O)[C@H](CCC(=O)O)NC(=O)[C@H](COP(=O)(O)O)NC(=O)[C@H](CO)NC(=O)[C@@H](N)CC(=O)O)C(=O)N[C@@H](CCCNC(=N)N)C(=O)N[C@@H](CCCNC(=N)N)C(=O)N[C@@H](CCCCNC(=O)C(F)(F)F)C(=O)N[C@@H](CCCNC(=N)N)C(=O)N[C@@H](CCCNC(=N)N)C(N)=O) [Example 1-1]”, for which, in series [1], the “critical aggregation concentration (CAC)” value is 50 µM. This molecule displayed an Average particle diameter in series [2] of 380 nm.

Molecule RRKRR [Rgp-binding peptide A (RRKRR)] had a Kd in series [3] of 400 nM.
